Laboratory results published in the DeepSol protein solubility set.

Assay: soluble on expression in E. coli; label from the status in PepcDB or PDB records

Soluble on expression in E. coli, not soluble:
MGSDKIHHHHHHMEIGIAASVSELDGVQWDALSDGSPLLSHAFLSALEHSGSVGEGTGWQPMPLTVRRDGKLIGAVPLYLKHHSYGEYVFDWSWAGAYTQHGGEYYPKLVAAVPFTPITGSRLLSHDPMLQAHMAEVLRDTVQRLQLSSAHVLFPDEQSAEVLSGQGWLRRQGVQFRWHNQGFASFDEFLMTLTHDKRKKIRQERRKVDAAGVICRRLLGAEIGEREWDFFYKCYVNTYLEHRSSPYLTQAFFHELGERLPGNVMLVLAERDGRRIGAALNLYDTDCLYGRYWGALAYVPNLHFELCYYQAQLFCIERGIRFFEGGAQGEHKLARGFVARETCSFHHIAHPDFEAAIRHFVSREAVGVSHYQQELDERAPYRKPG
MGSDKIHHHHHHMEINGHEIQFKDNAVFLEENKILILADVHVGMEEFIRRNGVLFPLNEKKELLKRLKNLIVEFKPEKLVFLGDFLHHFQKVPYKVYETIRELNSLLKNYEIIVIRGNHDIMLEYILKENTNFKILDYLLENKILMIHGDKKFDIDFNFDLLIMGHEHPVLEINKQRFPSYLEIVQNDFKILVAPAFSNIASGVKINELESNFMSPYLKKVKKEDIFPIIIGEEVLKFPDLSKIEKFL
MGSDKIHHHHHHMEINTEIAIAWMSARQGKVSYSMDYRDGPNSYDCSSSVYYALRSAGASSAGWAVNTEYMHDWLIKNGYELIAENVDWNAVRGDIAIWGMRGHSSGAGGHVVMFIDPENIIHCNWANNGITVNNYNQTAAASGWMYCYVYRLKSGASTQGKSLDTLVKETLAGNYGNGEARKAVLGNQYEAVMSVINGKTTTNQKTVDQLVQEVIAGKHGNGEARKKSLGSQYDAVQKRVTELLKKQPSEPFKAQEVNKPTETKTSQTELTGQATATKEEGDLSFNGTILKKAVLDKILGNCKKHDILPSYALTILHYEGLWGTSAVGKADNNWGGMTWTGQGNRPSGVTVTQGSARPSNEGGHYMHYASVDDFLTDWFYLLRAGGSYKVSGAKTFSEAIKGMFKVGGAVYDYAASGFDSYIVGASSRLKAIEAENGSLDKFDKATDIGDGSKDKIDITIEGIEVTINGITYELTKKPV
MGSDKIHHHHHHMEITIFGKGNMGQAIGHNFEIAGHEVTYYGSKDQATTLGEIVIMAVPYPALAALAKQYATQLKGKIVVDITNPLNFDTWDDLVVPADSSAAQELQQQLPDSQVLKAFNTTFAATLQSGQVNGKEPTTVLVAGNDDSAKQRFTRALADSPLEVKDAGKLKRARELEAMGFMQMTLAASEQIGWTGGFAVVK
MGSDKIHHHHHHMEKIGELINHFRENKGMSQAELSEGILSKAQLSKFERDLTKISVDKFLALLERLHVTFTEFGNALAIQERLYEQAILEDITKAVINNNKDQAQLVKERAEQHLKKHHGKYNQLTLIMVKAMICDMEKGTLPKADTKVLADYLFSVDGWTHFELLLFGNTMSALSLVTVNQLARELAAQINEAWAIHQNFQLTINLLYNVVILNLSAKDLTTARLFLRVMKHSHVEDSMMAERYLIALADAFCDYCGEPTVEHENNVKRMIEIQKEIGSTNFFVAFNNQAKMFISETKISSNDSAGNV
MGSDKIHHHHHHMEKILTKQEIEALLAAVFEGKIEPDKELAKAEATVQSYDLFSSESKGNIPNLDIIYDSFIRYQRGTLSNRLGRIVEIKKVGAASFKFDDFLHTMPSPVAMAVYKADPLKGAALIAFDSTLVFTIVDCILGGTGSSVVPTVGNRMFTSIELRLVQKIVMDVLADLEKAWAPIYATKMGFLRMEMNPRLVNIVPPEYQVVTMEMEIQIEEIIGKMIFAVPLTTIDPVREKLKNGAQVDMMAIDPQWSFRLSKELLEAPLDLSVEVGGAIISMDELLNLTPGDTIMLDTPCNSDLVVKVGGVSKFMSAPGLRHGNKAAQITTIIGKGREQ
MGSDKIHHHHHHMEKLLTIVVPAYNVEKYIKNCLDSFIDLSVLRSLEILIVDDGSTDSTASLAHTYEQKYPYSFKVLSKENGGHGSTINYAIPRATGKYFKVVDGDDWLDKSLLPQFVQLLKHTHSDVISNDFNLVDDKTKKVTKRRKAVSNSYHYNREWGFAEAVMDPLITIHSMTIRTDVLQKNDIRVDEHCFYEDQEYILYPIPYCTSITFSPLPLYQYRLGRSGQSVDIKMMIKRHDQHLKVLDALFEYNNVHGNLQTYKKQYLERGIAEAVDDEYQIFLAKGNDTRNVEQMKKFDEMLREEHPGVYQACSRKSVWMLRKTGFKIFPMAAWVYSRLRGN
